From publication PMC7918451

Legend:
[1] = target: T1, Interleukin-6 (IL-6) ((aptamer stated to be specific to mouse IL-6)) (UniProt P08505); experiment: GFET (graphene field-effect transistor), Hill-Langmuir fit, n = 0.3; conditions: pH ~3.64, 2 mM MgCl2; 5' amine coupled to 1-pyrenebutyric acid NHS ester (5' pyrene); 0.01x PBS with 2 mM MgCl2, pH ~7.4 (or adjusted to ~3.64), 10 min exposure per concentration, temperature not stated; aptamer immobilized on graphene
T1 sequence: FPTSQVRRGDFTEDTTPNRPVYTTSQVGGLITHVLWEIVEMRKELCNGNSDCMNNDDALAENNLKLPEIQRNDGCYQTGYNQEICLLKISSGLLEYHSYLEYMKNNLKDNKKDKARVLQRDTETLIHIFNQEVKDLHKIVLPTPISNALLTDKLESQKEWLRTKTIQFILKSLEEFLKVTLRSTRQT

[2] = target: T1, Interleukin-6 (IL-6) ((aptamer stated to be specific to mouse IL-6)); experiment: manufacturer value; conditions: 5' amine; 0.01x PBS with 2 mM MgCl2, pH ~7.4 (or adjusted to ~3.64), 10 min exposure per concentration, temperature not stated; aptamer immobilized on graphene; cited from earlier work

IL-6 aptamer ATW0077 (Base Pair Biotechnologies), pyrene-tagged (PTDA)
Kd [1]: 3.4 nM

IL-6 aptamer ATW0077, as supplied (manufacturer Kd)
Kd [2]: 5.4 nM
